Measured values reported in paper PMC10397247.
Values belong to the binder of their own block, whether it stands above or below them.

Legend:
[1] = target: T1, 4H2143-bA; assay: two-hybrid library CCNG1;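 further: natural log of median RNA to DNA barcode read ratio; higher means stronger binding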
T1 chain: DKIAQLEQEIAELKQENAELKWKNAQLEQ

[2] = target: T2, 4H2162-bA; assay: two-hybrid library CCNG1;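 further: natural log of median RNA to DNA barcode read ratio; higher means stronger binding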
T2 chain: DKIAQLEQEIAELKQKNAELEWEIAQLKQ

[3] = target: T3, 4H2223-bA; assay: two-hybrid library CCNG1;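 further: natural log of median RNA to DNA barcode read ratio; higher means stronger binding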
T3 chain: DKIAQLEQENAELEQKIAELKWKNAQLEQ

[4] = target: T4, 4H2233-bA; assay: two-hybrid library CCNG1;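 further: natural log of median RNA to DNA barcode read ratio; higher means stronger binding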
T4 chain: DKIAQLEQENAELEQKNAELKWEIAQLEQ

[5] = target: T5, 4H2253-bA; assay: two-hybrid library CCNG1
T5 chain: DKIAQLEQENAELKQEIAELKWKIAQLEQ

[6] = target: T6, 4H235-bA; assay: two-hybrid library CCNG1
T6 chain: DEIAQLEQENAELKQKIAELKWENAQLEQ

[7] = target: T7, 4H2438-bA; assay: two-hybrid library CCNG1
T7 chain: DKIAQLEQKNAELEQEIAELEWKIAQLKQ

[8] = target: T8, 4H2444-bA; assay: two-hybrid library CCNG1
T8 chain: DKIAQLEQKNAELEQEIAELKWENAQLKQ

[9] = target: T9, 4H2473-bA; assay: two-hybrid library CCNG1
T9 chain: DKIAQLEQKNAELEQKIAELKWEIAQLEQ

[10] = target: T10, 4H2503-bA; assay: two-hybrid library CCNG1
T10 chain: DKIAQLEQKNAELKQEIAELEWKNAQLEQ

[11] = target: T11, 4H2518-bA; assay: two-hybrid library CCNG1
T11 chain: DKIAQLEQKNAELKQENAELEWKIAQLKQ

[12] = target: T12, 4H2585-bA; assay: two-hybrid library CCNG1
T12 chain: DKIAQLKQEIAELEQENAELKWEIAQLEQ

[13] = target: T13, 4H2588-bA; assay: two-hybrid library CCNG1
T13 chain: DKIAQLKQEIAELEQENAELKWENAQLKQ

[14] = target: T14, 4H264-bA; assay: two-hybrid library CCNG1
T14 chain: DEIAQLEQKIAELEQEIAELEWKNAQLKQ

[15] = target: T15, 4H2692-bA; assay: two-hybrid library CCNG1
T15 chain: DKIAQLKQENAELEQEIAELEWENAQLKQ

[16] = target: T16, 4H2717-bA; assay: two-hybrid library CCNG1
T16 chain: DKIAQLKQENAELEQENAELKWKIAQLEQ

[17] = target: T17, 4H2760-bA; assay: two-hybrid library CCNG1
T17 chain: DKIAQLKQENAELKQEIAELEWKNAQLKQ

[18] = target: T18, 4H2839-bA; assay: two-hybrid library CCNG1
T18 chain: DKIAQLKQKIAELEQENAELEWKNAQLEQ

[19] = target: T19, 4H2859-bA; assay: two-hybrid library CCNG1
T19 chain: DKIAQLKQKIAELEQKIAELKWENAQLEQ

[20] = target: T20, 4H2915-bA; assay: two-hybrid library CCNG1
T20 chain: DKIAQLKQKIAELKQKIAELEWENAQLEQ

[21] = target: T21, 4H2931-bA; assay: two-hybrid library CCNG1
T21 chain: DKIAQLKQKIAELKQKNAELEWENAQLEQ

[22] = target: T22, 4H3041-bA; assay: two-hybrid library CCNG1
T22 chain: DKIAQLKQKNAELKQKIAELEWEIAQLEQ

[23] = target: T23, 4H3057-bA; assay: two-hybrid library CCNG1
T23 chain: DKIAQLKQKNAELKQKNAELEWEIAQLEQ

[24] = target: T24, 4H319-bA; assay: two-hybrid library CCNG1
T24 chain: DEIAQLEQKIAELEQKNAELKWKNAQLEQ

[25] = target: T25, 4H3277-bA; assay: two-hybrid library CCNG1
T25 chain: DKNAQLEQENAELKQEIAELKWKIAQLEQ

[26] = target: T26, 4H3297-bA; assay: two-hybrid library CCNG1
T26 chain: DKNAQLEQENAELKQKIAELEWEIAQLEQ

[27] = target: T27, 4H3364-bA; assay: two-hybrid library CCNG1
T27 chain: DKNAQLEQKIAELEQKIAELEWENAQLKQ

[28] = target: T28, 4H3381-bA; assay: two-hybrid library CCNG1
T28 chain: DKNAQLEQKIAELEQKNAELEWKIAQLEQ

[29] = target: T29, 4H348-bA; assay: two-hybrid library CCNG1
T29 chain: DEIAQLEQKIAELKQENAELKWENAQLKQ

[30] = target: T30, 4H349-bA; assay: two-hybrid library CCNG1
T30 chain: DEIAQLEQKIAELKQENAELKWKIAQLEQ

[31] = target: T31, 4H40-bA; assay: two-hybrid library CCNG1
T31 chain: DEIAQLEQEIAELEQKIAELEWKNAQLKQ

[32] = target: T32, 4H477-bA; assay: two-hybrid library CCNG1
T32 chain: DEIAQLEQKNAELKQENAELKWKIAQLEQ

[33] = target: T33, 4H492-bA; assay: two-hybrid library CCNG1
T33 chain: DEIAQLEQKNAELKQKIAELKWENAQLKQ

[34] = target: T34, 4H56-bA; assay: two-hybrid library CCNG1
T34 chain: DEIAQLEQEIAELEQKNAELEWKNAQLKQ

[35] = target: T35, 4H730-bA; assay: two-hybrid library CCNG1
T35 chain: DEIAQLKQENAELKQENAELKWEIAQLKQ

[36] = target: T36, 4H741-bA; assay: two-hybrid library CCNG1
T36 chain: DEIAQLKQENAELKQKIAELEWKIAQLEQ

[37] = target: T37, 4H796-bA; assay: two-hybrid library CCNG1
T37 chain: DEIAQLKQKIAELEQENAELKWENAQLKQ

[38] = target: T38, 4H883-bH; assay: two-hybrid library CCNG1
T38 chain: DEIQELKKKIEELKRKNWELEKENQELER

[39] = target: T39, 4H932-bA; assay: two-hybrid library CCNG1
T39 chain: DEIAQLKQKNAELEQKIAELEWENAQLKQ

[40] = target: T40, 4H949-bA; assay: two-hybrid library CCNG1
T40 chain: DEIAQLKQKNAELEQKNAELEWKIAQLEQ

[41] = target: T41, O3-bA; assay: two-hybrid library CCNG1
T41 chain: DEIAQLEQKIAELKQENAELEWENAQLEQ

[42] = target: T42, P1A-bH; assay: two-hybrid library CCNG1
T42 chain: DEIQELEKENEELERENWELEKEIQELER

[43] = target: T43, 4H118-bN; assay: two-hybrid library CCNG1
T43 chain: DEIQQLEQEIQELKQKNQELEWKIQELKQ

[44] = target: T44, 4H170-bN; assay: two-hybrid library CCNG1
T44 chain: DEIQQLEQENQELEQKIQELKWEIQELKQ

[45] = target: T45, 4H1831-bN; assay: two-hybrid library CCNG1
T45 chain: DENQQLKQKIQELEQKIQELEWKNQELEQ

[46] = target: T46, 4H2586-bN; assay: two-hybrid library CCNG1
T46 chain: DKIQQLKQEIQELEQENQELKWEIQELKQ

[47] = target: T47, 4H2627-bN; assay: two-hybrid library CCNG1
T47 chain: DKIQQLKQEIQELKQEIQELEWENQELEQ

[48] = target: T48, 4H2673-bN; assay: two-hybrid library CCNG1
T48 chain: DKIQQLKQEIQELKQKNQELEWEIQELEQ

[49] = target: T49, 4H2702-bN; assay: two-hybrid library CCNG1
T49 chain: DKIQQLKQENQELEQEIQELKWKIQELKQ

[50] = target: T50, 4H3010-bN; assay: two-hybrid library CCNG1
T50 chain: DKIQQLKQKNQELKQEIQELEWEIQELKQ

[51] = target: T51, 4H3112-bN; assay: two-hybrid library CCNG1
T51 chain: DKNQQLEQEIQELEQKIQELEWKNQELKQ

[52] = target: T52, 4H3427-bN; assay: two-hybrid library CCNG1
T52 chain: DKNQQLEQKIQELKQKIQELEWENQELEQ

[53] = target: T53, 4H346-bN; assay: two-hybrid library CCNG1
T53 chain: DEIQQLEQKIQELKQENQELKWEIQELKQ

[54] = target: T54, 4H3926-bN; assay: two-hybrid library CCNG1
T54 chain: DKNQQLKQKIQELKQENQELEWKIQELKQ

[55] = target: T55, 4H4073-bN; assay: two-hybrid library CCNG1
T55 chain: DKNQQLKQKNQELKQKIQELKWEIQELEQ

[56] = target: T56, 4H457-bN; assay: two-hybrid library CCNG1
T56 chain: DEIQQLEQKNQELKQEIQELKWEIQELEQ

[57] = target: T57, 4H575-bN; assay: two-hybrid library CCNG1
T57 chain: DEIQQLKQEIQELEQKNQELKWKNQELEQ

[58] = target: T58, 4H683-bN; assay: two-hybrid library CCNG1
T58 chain: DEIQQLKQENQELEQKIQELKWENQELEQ

[59] = target: T59, 4H754-bN; assay: two-hybrid library CCNG1
T59 chain: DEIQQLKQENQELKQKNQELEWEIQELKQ

[60] = target: T60, 4H780-bN; assay: two-hybrid library CCNG1
T60 chain: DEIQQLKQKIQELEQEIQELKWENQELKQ

[61] = target: T61, 4H797-bN; assay: two-hybrid library CCNG1
T61 chain: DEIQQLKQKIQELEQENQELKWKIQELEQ

[62] = target: T62, 4H855-bN; assay: two-hybrid library CCNG1
T62 chain: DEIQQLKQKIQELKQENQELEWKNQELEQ

[63] = target: T63, 4H918-bN; assay: two-hybrid library CCNG1
T63 chain: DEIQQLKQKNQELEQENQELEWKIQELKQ

[64] = target: T64, 4H953-bN; assay: two-hybrid library CCNG1
T64 chain: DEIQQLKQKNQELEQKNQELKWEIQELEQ

[65] = target: T65, 4H968-bN; assay: two-hybrid library CCNG1
T65 chain: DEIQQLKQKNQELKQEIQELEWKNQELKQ

[66] = target: T66, O15-bS; assay: two-hybrid library CCNG1
T66 chain: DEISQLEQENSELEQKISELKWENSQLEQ

[67] = target: T67, P4; assay: two-hybrid library CCmax; settings: mean of both orientations
T67 chain: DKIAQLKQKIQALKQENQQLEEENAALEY

[68] = target: T68, P4SN; assay: two-hybrid library CCmax; settings: mean of both orientations
T68 chain: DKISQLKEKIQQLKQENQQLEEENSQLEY

interaction score [1]: 0.408
interaction score [2]: -0.188
interaction score [3]: -0.911
interaction score [4]: -0.508
interaction score [5]: -0.521
interaction score [6]: -1.89
interaction score [7]: -0.866
interaction score [8]: -0.654
interaction score [9]: -0.712
interaction score [10]: -0.661
interaction score [11]: -0.404
interaction score [12]: 0.499
interaction score [13]: 0.968
interaction score [14]: -1.37
interaction score [15]: -0.33
interaction score [16]: 0.447
interaction score [17]: -0.549
interaction score [18]: 0.951
interaction score [19]: 0.213
interaction score [20]: 0.145
interaction score [21]: 0.604
interaction score [22]: 0.0855
interaction score [23]: -0.0999
interaction score [24]: -1.13
interaction score [25]: -0.971
interaction score [26]: -0.562
interaction score [27]: -0.25
interaction score [28]: -0.302
interaction score [29]: -2.35
interaction score [30]: -0.729
interaction score [31]: -1.53
interaction score [32]: -1.41
interaction score [33]: -0.554
interaction score [34]: -0.735
interaction score [35]: -0.518
interaction score [36]: -1.07
interaction score [37]: -0.0583
interaction score [38]: -0.0863
interaction score [39]: -0.976
interaction score [40]: -0.273
interaction score [41]: 0.533
interaction score [42]: -0.594
B1: 4H2143-bA (peptide)
chain: DKIAQLEQEIAELKQENAELKWKNAQLEQ

interaction score [43]: 0.139
interaction score [44]: -1.27
interaction score [45]: -0.392
interaction score [46]: 0.735
interaction score [47]: 0.463
interaction score [48]: 1.25
interaction score [49]: 0.0476
interaction score [50]: 2.35
interaction score [51]: -0.413
interaction score [52]: -0.395
interaction score [53]: -0.129
interaction score [54]: 1.02
interaction score [55]: -1.59
interaction score [56]: -1.63
interaction score [57]: -0.336
interaction score [58]: -0.936
interaction score [59]: -0.655
interaction score [60]: -0.129
interaction score [61]: -0.885
interaction score [62]: 0.221
interaction score [63]: -0.314
interaction score [64]: -0.648
interaction score [65]: 0.0583
interaction score [66]: -1.04
B2: 4H118-bN (peptide)
chain: DEIQQLEQEIQELKQKNQELEWKIQELKQ

interaction score [67]: 1.5
interaction score [68]: 1.9
B3: P3_WA (peptide)
chain: DEIQQLEEEIAQLEWKNAALKEKNAQLKA
